# Measured values reported in patent US20030157685.
# T1: endogenous Omi protein precipitated from 293 cells with the anti-Omi polyclonal antibody
# T1 chain: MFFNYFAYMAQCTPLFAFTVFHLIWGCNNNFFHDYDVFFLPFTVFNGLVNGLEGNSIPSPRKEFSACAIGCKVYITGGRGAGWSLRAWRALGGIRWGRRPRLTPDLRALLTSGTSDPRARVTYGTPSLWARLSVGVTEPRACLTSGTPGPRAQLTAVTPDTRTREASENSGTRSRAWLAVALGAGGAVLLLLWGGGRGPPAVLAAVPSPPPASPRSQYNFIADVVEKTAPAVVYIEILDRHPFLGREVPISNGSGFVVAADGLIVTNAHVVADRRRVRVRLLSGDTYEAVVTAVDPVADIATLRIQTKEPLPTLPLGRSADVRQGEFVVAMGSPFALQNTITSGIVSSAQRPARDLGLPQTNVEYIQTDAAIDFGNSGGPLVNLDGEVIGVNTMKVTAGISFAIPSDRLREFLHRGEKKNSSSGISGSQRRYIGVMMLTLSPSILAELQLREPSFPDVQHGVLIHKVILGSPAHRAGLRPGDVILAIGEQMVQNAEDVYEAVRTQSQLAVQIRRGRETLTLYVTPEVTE
# B1: Mxi2 as a hemaglutinin epitope-tagged fusion (Mxi2-HA), expressed in 293 cells (protein)
# chain: MSQERPTFYRQELNKTIWEVPERYQNLSPVGSGAYGSVCAAFDTKTGLRVAVKKLSRPFQSIIHAKRTYRELRLLKHMKHENVIGLLDVFTPARSLEEFNDVYLVTHLMGADLNNIVKCQKLTDDHVQFLIYQILRGLKYIHSADIIHRDLKPSNLAVNEDCELKILDFGLARHTDDEMTGYVATRWYRAPEIMLNWMHYNQTVDIWSVGCIMAELLTGRTLFPGTDHIDQLKLILRLVGTPGAELLKKISSESARNYIQSLTQMPKMNFANVFIGANPLGKLTIYPHLMDIELVMI
# Experiments:
# [1] = target: T1, endogenous Omi protein precipitated …
# [2] = target: His-Max made in bacteria, P61244
# Sequence of His-Max made in bacteria, P61244 (P61244 whole entry): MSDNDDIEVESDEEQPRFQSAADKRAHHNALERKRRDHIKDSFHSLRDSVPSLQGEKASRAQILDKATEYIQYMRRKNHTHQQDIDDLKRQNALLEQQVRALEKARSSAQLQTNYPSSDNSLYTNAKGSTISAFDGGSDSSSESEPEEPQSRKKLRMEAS
protein,measurement,setting,value
B1,phosphorylation of Omi by isolated HA-Mxi2 (autoradiograph),[1],The autoradiograph shows Omi as well as Max protein was phosphorylated
same,"phosphorylation of Omi in a kinase reaction on the immunoprecipitated Omi/Mxi2 complex ([gamma-32P]ATP, autoradiography)",[1],Phosphorylated Omi is shown as a doublet of phosphorylated polypeptides with a molecular weight of 57-59 kD
same,"proteolytic activity of Omi (colorimetric assay, absorbance at 450 nm)",[1],the proteolytic activity of Omi increases dramatically when phosphorylated by Mxi2
same,phosphorylation of Max by isolated HA-Mxi2 (autoradiograph),[2],The autoradiograph shows Omi as well as Max protein was phosphorylated
same,phosphorylation of Max in the same kinase reaction,[2],Max was also phopshorylated very efficiently
